# Measurements published in patent US20220073604A1 (ARGENX BVBA, published 2022).
# Substitutions are numbered along the chain they refer to. Names may count otherwise. “And” between values parts separate entries of the source, which are not always exact repeats. Identical values can stand only once.
# B1: Fab 68F2 (Fab, V domains shown)
# VH: EVQLQESGPGLVKPSQTLSLTCTVSGGSITTRYYAWSWIRQPPGKGLEWMGVIDYDGDTYYSPSLKSRTSISWDTSKNQFSLQLSSVTPEDTAVYYCARDPDVVTGFHYDYWGQGTQVTVSS
# VL: QSALTQPPLVSGTPGQTVTISCAGANNDIGTYAYVSWYQQLPGTAPKLLIYKVTTRASGIPSRFSGSKSGNTASLTISGLQSEDEADYYCASYRNFNNAVFGRGTHLTVLG
# notes: VL-shuffled Fab of 20A4; for the crystal the Fab was made from 68F2 mAb with papain; also called 68F2 Fab
# B2: Fab 17F10 (Fab, V domains shown)
# VH: EVQLQESGPGLVKPSQTLSLTCTVSGGSIATSYYAWSWIRQPPGKGLEWMGVIDYDGDTYYKPSLKSRTSISRDTSKNQFSLQLSSVTPEDTAVYYCARAGLGDSYYLGTYYAMDYWGKGTLVTVSS
# VL: QAGLTQPPSVSGSPGKTVTISCAGTTSDVGTGNFVSWYQQLPGMAPKLLIYDVNKRASGIADRFSGSKSGNTASLTISGLQSEDEADYYCASYRSLNNVVFGGGTHLTVLG
# notes: Fab; also called 17F10 pur Fab 68 nM
# B3: Fab 111A7M_A (CMC optimized variant of Fab 111A7, CDR3 methionine to alanine) (Fab, V domains shown)
# VH: EVQLLESGGGLVQPGGSLRLSCAASGFTFSSYAMSWVRQAPGKGPEWVSRISAGGGSTYYGDSVKGRFTISRDNSKNTLYLQMNSLRAEDTAVYYCANRAGWGAGDYWGQGTLVTVSS
# VL: QTVVTQEPSFSVSPGGTVTLTCGLSSGSVTASNYPGWYQQTPGQAPRALIYSTNDRHSGVPDRFSGSISGNKAALTITGAQAEDEADYYCALDIGDITEFGGGTQLTVL
# notes: Fab; The VL is that of 111A7; also called M98X: A
# B4: Fab 111A7 with the CDR3 methionine changed to H (Fab, V domains shown)
# VH: B3 VH with A104H
# VL: B3 VL
# B5: Fab 111A7 with the CDR3 methionine changed to V (Fab, V domains shown)
# VH: B3 VH with A104V
# VL: B3 VL
# B6: Fab 111A7 with the CDR3 methionine changed to P (Fab, V domains shown)
# VH: B3 VH with A104P
# VL: B3 VL
# B7: 111A7 Fab (W98, M100) (Fab, V domains shown)
# VH: B3 VH with A104M
# VL: B3 VL
# notes: also called WGM
# B8: Fab 111A7 with the CDR3 methionine changed to T (Fab, V domains shown)
# VH: B3 VH with A104T
# VL: B3 VL
# B9: Fab 111A7M_S (CMC optimized variant of Fab 111A7, CDR3 methionine to serine) (Fab, V domains shown)
# VH: B3 VH with A104S
# VL: B3 VL
# notes: Fab; The VL is that of 111A7; also called M98X: S
# B10: Fab 111A7M_L (CMC optimized variant of Fab 111A7, CDR3 methionine to leucine) (Fab, V domains shown)
# VH: B3 VH with A104L
# VL: B3 VL
# notes: Fab; The VL is that of 111A7; also called M98X: L
# B11: BE8-Fab (Fab, from another filing, V domains shown)
# VH: QVTLKESGPGILKPSQTLSLTCSFSGFSLSTSGMGVGWIRQPSGKGLEWLAHIWWDDDKYYNPSLKSQLTISKDTSRNQVFLKITSVDTADTATYYCARSYDDYLYYALDYWGQGTSVTVSS
# VL: DIVMTQSPATLSVTPGDRVSLSCRASQSISDYLHWYQQKSHESPRLLIKSVSQSISGIPSRFSGSGSGSDFTLSINSVEPEDVGVYYCQNGHSFPLTFGAGTKLELK
# Legend:
# [1] = target: T1, bacterially produced human IL-6 (human, UniProt P05231 30-212); experiment: SPR; purified Fab
# T1 construct: also called bactIL-6; prokaryotic IL-6
# [2] = target: T2, eukaryotically produced human IL-6 (human, UniProt P05231 30-212); experiment: SPR; purified Fab
# T2 construct: also called eukIL-6; Euk IL-6
# [3] = target: T3, human IL-6 (human, UniProt P05231 30-212); experiment: comparison of affinities after VL shuffling
# T3 construct: Used where the text says only IL-6 or human IL-6 (crystals: rh IL-6 from Immunotools; cell assays) and for values averaged over the bacterial and eukaryotic IL-6 channels; also called interleukin-6; rh IL-6
# [4] = target: T4, cynomolgus monkey IL-6 (cynomolgus monkey, UniProt P79341 28-212, limits assumed); experiment: SPR; purified Fab
# T4 construct: also called HIS-cyIL-6
# [5] = target: T1, bacterially produced human IL-6; experiment: SPR; purified Fab, 68 nM
# [6] = target: T2, eukaryotically produced human IL-6; experiment: SPR; purified Fab, 68 nM
# [7] = target: T4, cynomolgus monkey IL-6; experiment: SPR; purified Fab, 68 nM
# [8] = target: T1, bacterially produced human IL-6; experiment: SPR; purified Fab; IL-6 coated on CM5 chip
# Procedure: (§1) From the washing phase the off-rate (kd) was determined, while from the injection phase the on-rate (ka) was calculated using the concentration and off-rate as parameters.
# [9] = target: T2, eukaryotically produced human IL-6; experiment: SPR; purified Fab; IL-6 coated on CM5 chip
# Procedure: as §1
# [10] = target: IL-6 (bact-hIL-6, euk-hIL-6 and bact-cy IL-6; 'average binding' of Table 21); experiment: average binding level in the off-rate screen (unit not given; n = 3)
# [11] = target: T5, eukaryotically produced human IL-6 (human, UniProt P05231 30-212); experiment: off-rate of Fab 111A7 variant on euk-hIL-6 (binding kinetics, SPR presumed; n = 3)
# T5 construct: also called euk-hIL-6; EUK IL-6
# [12] = target: T6, bacterially produced human IL-6 (human, UniProt P05231 30-212); experiment: off-rate of Fab 111A7 variant on bact-hIL-6 (binding kinetics, SPR presumed; n = 3)
# T6 construct: also called bact-hIL-6; BACT IL-6
# [13] = target: T7, bacterially produced cynomolgus monkey IL-6 (cynomolgus monkey, UniProt P79341 28-212, limits assumed); experiment: off-rate of Fab 111A7 variant on bact-cy IL-6 (binding kinetics, SPR presumed; n = 3)
# T7 construct: also called bact-cy IL-6; HIS-cyIL-6
# [14] = target: IL-6 (bact-hIL-6, euk-hIL-6 and bact-cy IL-6; 'average binding' of Table 21); experiment: average binding level in the off-rate screen (unit not given; n = 4)
# [15] = target: T7, bacterially produced cynomolgus monkey …; experiment: off-rate of Fab 111A7 variant on bact-cy IL-6 (binding kinetics, SPR presumed; n = 4)
# [16] = target: IL-6 (bact-hIL-6, euk-hIL-6 and bact-cy IL-6; 'average binding' of Table 21); experiment: average binding level in the off-rate screen (unit not given; n = 2)
# [17] = target: T7, bacterially produced cynomolgus monkey …; experiment: off-rate of Fab 111A7 variant on bact-cy IL-6 (binding kinetics, SPR presumed; n = 2)
# [18] = target: IL-6 (bact-hIL-6, euk-hIL-6 and bact-cy IL-6; 'average binding' of Table 21); experiment: average binding level in the off-rate screen (unit not given; n = 5)
# [19] = target: T7, bacterially produced cynomolgus monkey …; experiment: off-rate of Fab 111A7 variant on bact-cy IL-6 (binding kinetics, SPR presumed; n = 5)
# [20] = target: T8, bacterially produced human IL-6 (human, UniProt P05231 30-212); experiment: SPR (Biacore), periplasmic Fab
# T8 construct: Immobilised on the Biacore chip; also called BACT IL-6 (2-1); bactIL-6
# Procedure: (§2) The binding kinetics of periplasmic fractions of bacteria containing the mutant Fabs were tested using surface Plasmon resonance (Biacore) and the off-rate for each mutant was determined.
# [21] = target: T9, eukaryotically produced human IL-6 (human, UniProt P05231 30-212); experiment: SPR (Biacore), periplasmic Fab
# T9 construct: Immobilised on the Biacore chip; also called Euk IL-6; EUK IL-6 (3-1)
# Procedure: as §2
# [22] = target: T5, eukaryotically produced human IL-6; experiment: off-rate of Fab 111A7 variant on euk-hIL-6 (binding kinetics, SPR presumed; n = 5)
# [23] = target: T6, bacterially produced human IL-6; experiment: off-rate of Fab 111A7 variant on bact-hIL-6 (binding kinetics, SPR presumed; n = 5)
# [24] = target: IL-6 (bact-hIL-6, euk-hIL-6 and bact-cy IL-6; 'average binding' of Table 21); experiment: average binding level in the off-rate screen (unit not given; n = 1)
# [25] = target: T5, eukaryotically produced human IL-6; experiment: off-rate of Fab 111A7 variant on euk-hIL-6 (binding kinetics, SPR presumed; n = 1)
# [26] = target: T6, bacterially produced human IL-6; experiment: off-rate of Fab 111A7 variant on bact-hIL-6 (binding kinetics, SPR presumed; n = 1)
# [27] = target: T7, bacterially produced cynomolgus monkey …; experiment: off-rate of Fab 111A7 variant on bact-cy IL-6 (binding kinetics, SPR presumed; n = 1)
# [28] = target: bacterially produced human IL-6 (human) (UniProt P05231); experiment: SPR; purified Fab
# [29] = target: eukaryotically produced human IL-6 (human) (UniProt P05231); experiment: SPR; purified Fab
# [30] = target: bacterially produced human IL-6 (human) (UniProt P05231); experiment: SPR (Biacore), purified Fab
# [31] = target: eukaryotically produced human IL-6 (human) (UniProt P05231); experiment: SPR (Biacore), purified Fab
# [32] = target: IL-6 surfaces of Table 8 (Bact, euk, cyno), average; experiment: SPR (Biacore), off-rate screen
# [33] = target: bacterially produced human IL-6 (human) (UniProt P05231); experiment: SPR; purified Fab; ratio bact to euk IL-6
# [34] = target: T3, human IL-6; experiment: SPR; purified Fab; average of the IL-6 channels
binder,measurement,setting,value
B1,koff,[1],8e-05 s⁻¹
same,koff,[2],3.3e-05 s⁻¹
same,fold affinity against parental 20A4,[3],10 fold
B2,Kd,[1],43 nM
same,koff,[1],0.0012 s⁻¹
same,Kd,[2],6 nM
same,koff,[2],0.00072 s⁻¹
same,Kd,[4],0.62 nM
same,koff,[4],0.0007 s⁻¹
same,Kd,[5],19 nM
same,koff,[5],0.00088 s⁻¹
same,Kd,[6],14 nM
same,koff,[6],0.00077 s⁻¹
same,Kd,[7],14 nM
same,koff,[7],0.00078 s⁻¹
same,Kd,[8],43 nM
same,koff,[8],0.0012 s⁻¹
same,Kd,[9],6 nM
same,koff,[9],0.00072 s⁻¹
B3,average binding,[10],102
same,koff,[11],4.77e-05 s⁻¹
same,koff,[12],8.5e-05 s⁻¹
same,koff,[13],0.000131 s⁻¹
B4,average binding,[14],109
same,koff,[15],0.000222 s⁻¹
B5,average binding,[16],163
same,koff,[17],0.000242 s⁻¹
B6,average binding,[18],66
same,koff,[19],0.000899 s⁻¹
B7,koff,[20],5e-05 s⁻¹
same,koff,[21],4.67e-05 s⁻¹
B8,average binding,[16],130
same,koff,[17],0.000144 s⁻¹
B9,average binding,[18],118
same,koff,[22],5.46e-05 s⁻¹
same,koff,[23],9.81e-05 s⁻¹
same,koff,[19],0.000146 s⁻¹
B10,average binding,[24],141
same,koff,[25],6.78e-05 s⁻¹
same,koff,[26],0.000117 s⁻¹
same,koff,[27],0.000184 s⁻¹
B11,koff,[28],9.41e-05 s⁻¹
same,koff,[29],8.59e-05 s⁻¹
same,Kd,[30],0.28 nM
same,koff,[30],7.7e-05 s⁻¹
same,kon,[30],280000 M⁻¹ s⁻¹
same,Kd,[31],0.22 nM
same,koff,[31],7.7e-05 s⁻¹
same,kon,[31],360000 M⁻¹ s⁻¹
same,Average binding (RU),[32],338 RU and 340 RU and 347 RU
same,ratio bact/euk,[33],1.05
same,average binding,[34],207
